Source: the domain aggregation screens of Martell et al. (2025)

Assay: soluble fraction after stress (log2 fold change); higher = more stays soluble; pooled small domains, quantitative proteomics
Conditions: stress: 50 degC
Procedure, shortened: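 Custom libraries of small protein domains were pooled and measured in a high-throughput format, with quantitative proteomics as the read-out. Each library was stressed at 50°C. The value is the log2 fold change in the amount of each protein that stays soluble after stress, used as a measure of aggregation propensity; higher values mean more of the protein stays soluble.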

## HMPAPMISIQLNGEPRNVQPGISIAALVREIGLEPAKVAVERNREIVPRSTLGDVLIEAGDQLEIVHFVG
  soluble fraction (log2): 0.159

## HMPAQPEPYNNLARLYSAQGKLDQAASLLRAGLYTDPAYRALFDNLTRIYAEQAARSLSAALD
  soluble fraction (log2): -0.907

## HMPASDPNEKQILRFLTEHQVITRKETQALLDVSQSTAGRVLKAMVDNGQIKQLGGSRNTRYELPM
  soluble fraction (log2): -0.183

## HMPASGISSEIIYDGILIEENLRQLKKDKAWLMDQLKKKGISSVSEVFLATLNKGGSLYIDKY
  soluble fraction (log2): -0.0117

## HMPASVSAIRKYLGGGSFKGVGPALAKRIVDAFGEYTIETIENDPKQLAKVKGVSEKMALEINTQ
  soluble fraction (log2): -0.0317

## HMPAYYQKEAVLDGRASVFAYERDPSSWYFKQLIPGTKKYRTKKIQGATTLEQAKSQALDIALGLRDEP
  soluble fraction (log2): 0.0201

## HMPDDHFIRGYVTAVLEQVLKVPSIQVEVERGVVILRGDLPGEERQELLDAVSRIHGVARVEYIPL
  soluble fraction (log2): -0.0295

## HMPDLSGEEQQIVDILAQRGNLQINTLVVETDIPVHKMNAILFELEMKGVVRVLAGGMYQLL
  soluble fraction (log2): -0.263

## HMPDPLVEIRSAVHSNYAGMIAMLGADNRVYLGREEHYSYQDGQPGQYDNRDGSLLFVSDQPDIYYFL
  soluble fraction (log2): -1.44

## HMPEAITLRDLKTYSKQAASGYLDDHQLVLVEKEAHSEDVPEGQVIKQKPGAGASVKPGDKVEVTFSLGPE
  soluble fraction (log2): 0.0136

## HMPEKKKYGDFVSMTEEEYGKLVSEYGQEAAKRMVEILNNYKGATGKPYKSDYLAILNWVVKRIKEE
  soluble fraction (log2): 0.0441

## HMPELFLFNPDTASAATFQALGFSARQAGVLIHFREALGGRFGSVEQFSKSYVVDSATLERLRPYMVF
  soluble fraction (log2): -3.63

## HMPEMHIYTKEGKIHITHIDENEEIKIYNPLGQIIYTGSPQDIPVLEGKGLYIIYIGKSAVEVLES
  soluble fraction (log2): -1.65

## HMPENESPEEKHARFRRFAEGLMARLDENESVRDILPELKVWLDDRELDRDDQRLARNLMLTAGKRE
  soluble fraction (log2): 0.0802

## HMPEPLTARETEVLRLLSGGYSNREIAAAMFLAEGTIKNHVSAVLLKLGVRDRTRAVLRGLELGLIQ
  soluble fraction (log2): -1.81

## HMPEPPRVGETLAALRQDRALSLDELSRQAGVSKSMLSQIERNQANPTVAVVWRLANALGVPMAELLGA
  soluble fraction (log2): -0.108

## HMPGDIRKAAILLMSLPREQAAQVLARLDPKQVEAVTIEIARLGTVTPDEQEQALKEFSQANPA
  soluble fraction (log2): 0.0798

## HMPGIDDAAVEHAERVLAQHIGPMARLLVRRTVPRAANLFDLHRRLGALIPESEPRTAFLSAVVT
  soluble fraction (log2): 0.0708

## HMPGLSQAEAQSLLIAYLAQQGRTLELIPLGQSGDVWRFSGRESDGTVVSFFMVSRTDGTISEVPVPP
  soluble fraction (log2): -0.62

## HMPGRLSRREVEVIELTARGLPAAEMAVRLGISANTIEFHRRRIMQKLGVANAAEMVRRATELGW
  soluble fraction (log2): -2.1

## HMPGRVITVMVNGKRVDLPFREEPYIFVDLFRYMDFDVERARGRIQLAINGKKAGYTDIIREGDSIEI
  soluble fraction (log2): -0.562

## HMPGTAAQARQLKAWLKENGEKPGAALPALQKAQEIYGYVPREVQQLIADALHKPLTEIYGVSTFYSQFNL
  soluble fraction (log2): -0.573

## HMPGTPADQVAELQTKVGTETKTGDMITQDDVKLLQTALDPLAKMNDRIQAAKILESKGIVTSDGNLRT
  soluble fraction (log2): 0.124

## HMPIGENIKRLRIMHGLSQKELAQIAGVSDKAVSTWENGTKEPRMGAVQKITGYFGLKKSNLIEDNGL
  soluble fraction (log2): -0.0331

## HMPIMDSDDKYEALGIPQEWIAVVKKAGYQTVEALKAVENPNKLHQELSVMNKKEKLGLAGLTPEMVKAWL
  soluble fraction (log2): 0.342

## HMPINPKVKQIYDTLKDGGADVGSEKEFNDYFFAKGKDGYNNRKEVFNTLREGGADAGKSYEEFAGWLGL
  soluble fraction (log2): 0.362

## HMPIPIESEISRSPGQSIYAFVQQHYGRSGRSPADMRALVGLILRLNRQIRTPLLIPFGLVVVRPT
  soluble fraction (log2): -0.0619

## HMPIRVGDAFESLAGVFPDEYNKALRKSTKKPVFFVPVKVEAGSGALRQKGKITFIVKDGRIDAIQIAL
  soluble fraction (log2): -1.21

## HMPISQGATVKHNANMRKGASTKYKVTGVLQEGEEVKILSQSNGWYKIQNSDNEKGWTYNTHINASDK
  soluble fraction (log2): 0.0951

## HMPKHFIDFSEGEVVSITDGPFKGFDGAISEIDNQKGKVKVMVSMFGRDTSVELDALQVKKV
  soluble fraction (log2): -0.107

## HMPKITTIHIDPEKISKVIGPGGKTVKKIIEETGAKIDIEDTGKIFIAAVNTEAANKAIDMINGIVA
  soluble fraction (log2): 0.103

## HMPKLPIIYVLDGHVNKNALTTSGKNKVWIEHELKKHHINSIKDVLIAMTDTEGKFYYQLYD
  soluble fraction (log2): -1.44

## HMPKLSNNHMAVWQAIRSRTAKGEPSTRAVIRDDLKAAGMDTSKHFSRWLTKLIDLGMVVKDGENLSIR
  soluble fraction (log2): -0.16

## HMPKMISPAQIKAIGAKTNNIAKASGVEQAQVYQSAVAHLGINNKSTKELTSQEASKVIEYLSTL
  soluble fraction (log2): 0.0861

## HMPKPMKATKITLQQEPRIRVDFTYDPLKVQQIKTISGARWSKSLKAWHIPYTKEAFNQLKKLFPNVEIEV
  soluble fraction (log2): -0.166

## HMPKSVRQSFVYSPMYRDVEYLADFLRNNNKDDSSVSASGDKLVYYGTADEIARVKSVLKGVDV
  soluble fraction (log2): -0.026

## HMPLIPIAIELARHALPSLIGAIAGDKSEKVAKEVVDAALKTTGKTTPDEALHALQADPQLAHEYRLSLL
  soluble fraction (log2): 0.287

## HMPLKLIDVYLGRHGKKRYDVFKETGLSQQTLASANGKPAAALTGRILQAIGRTVGETPGRVLDEMLMIEQ
  soluble fraction (log2): -0.691

## HMPLLADLPNLLRKVLKQHPGRVVDVDLERGRQGREIYHVRVLQENGQVRGLFVDASTGELVS
  soluble fraction (log2): -0.224

## HMPLQLPEPMAELARNGETARLAEALKQGLDIDLRDGKGNTLLMIAAYQGRAETVAMLLKAGA
  soluble fraction (log2): -1.71

## HMPLSLESVSEGGRNDTAARIAGYLIAKGLNVDFARFFLQSWNTKNKPPLDDTEIDTIVNSIMKTHERKNQ
  soluble fraction (log2): -0.361

## HMPLTPATADAGRFVKQDRKYIRLLAKRYNFTHGDIKSEIDRVSAVLSSNGIDRVPLFLYKEYLEQYLAG
  soluble fraction (log2): -1.85

## HMPLTRSDVKRIQLWLMAHGYDIGSPDGVFGDKSNRAANAFLSQQGRSLETVTLGKLYDILEAN
  soluble fraction (log2): -2.01

## HMPMINLYQRLNLPPTASRAEIEAALAQYRSELSTAEIRGVQEWLLVNEVRHRYDAKLRQEQPSFFI
  soluble fraction (log2): -0.471

## HMPMTLGENIARLRTQKDWSQGDLADALGISRQSISKWETDTSIPELEKLIKLSELFGVTLDQLVRGE
  soluble fraction (log2): -0.193

## HMPNILLSVKDASVAISVSSKMVRLLIASGRLKAVNLGKRMTRISLQELTDFAQRQGGNVVLP
  soluble fraction (log2): -0.147

## HMPNLAAAIGARVTIRLREASGGFRDIVGTLQRFGDGVNELLNSKGQIISFSEDEIAIWREIK
  soluble fraction (log2): -0.816

## HMPNQIKQIAVNTASVSDIATIPGISFDFAKEIWEFRILRQKIGSLSELQKIEGMTASKYALIELYLHI
  soluble fraction (log2): -3.37

## HMPNSIKAPAYLHNIARIYDHVLIDVEKASSAYEKLIKKYPNHPLSINAKLYLENAFNRSDEELLNMIKEN
  soluble fraction (log2): -0.798

## HMPNYVEMLRLHEAGFSLRQIAKLVSSGRNTVTRTVNIAQEKELSYEEIAQWSSEELENMFKPD
  soluble fraction (log2): -1.68

## HMPPDIKVVGVTVASDPRASFAMLSSNGKTLSYRVNDLIEGTEYHLIKVEAAAITIATAGGQSTQIAF
  soluble fraction (log2): -0.585

## HMPPFTYHLERAKRKTVGFIVDERGVTVRAPRWVSVSEIEKMLQTKEAWIQKKLTEFHNWQKE
  soluble fraction (log2): -3.11

## HMPPHGHIVELLPEQDFGRIETGDGRLVYFHRNSVLDGDFAQLAVGDAVRFAEEMGERGPQASSVHVE
  soluble fraction (log2): 0.0967

## HMPPLKYLKVKSYLEAVAVKAESAMRMPTVRELMNQFNVSLATVNRALSELENDGVIVRRQGSGIVAAG
  soluble fraction (log2): 0.147

## HMPPSGPWEQDPPSEAQLKPFNEAMKRTADIDVDLYEKAKKALNDGTITKGNIYDWINREDSPWVLQDGS
  soluble fraction (log2): 0.141

## HMPPSQRVNRILSLAGITSRRKADEYILEGRVTVNGEVLKEPGAKAVWGTDDIRVDGKPIPALS
  soluble fraction (log2): 0.1

## HMPPSVAETLKRLRRHKSLSLEELAQMSGVSRSMLSQIERDATNPTVATLWRITAALGVSIDEVLGV
  soluble fraction (log2): -1.87

## HMPPTEQVYRSHVPPQYDGFPIEKYFTTRFSYQDVEEWSRQILAGKIEVNGKTALIGQILSASDLTVTRA
  soluble fraction (log2): -0.855

## HMPQETPIPKSEIQSYDEIWLEPISTDNILRNELRGWYHVKDRWVENEFGNRFYLDTYASKWLAFPS
  soluble fraction (log2): -0.0557

## HMPQKIVIQKGVVIKKRERSDAWQIYITVKGKKPIRKSANTDNVEKAKQMALTLFAEKNYKVENNLPIQ
  soluble fraction (log2): -1.18

## HMPQLSNEEQKIVDALEGSDGKQINLITVETNIPMARLMSVLFEMEMRGIVKSLNGARYKLN
  soluble fraction (log2): -0.163

## HMPQTDDSEPLGKYGRMRLAYLKNQRPVLYNQMLLNGTLWPHLQDVQKTAYEWLERTMTTLLDK
  soluble fraction (log2): -0.0745

## HMPRDQQENIYLLEKGKRLYEEHLGDQRQIIGHRIMIFERILESQDHAQIRRAQSEFAEFLSHYDG
  soluble fraction (log2): -0.229

## HMPRDYYAVLEVSVSSTPVQIRQAYQRLARRYSPDVNFLDRDTEALFEEIVEAYRVLSNPTARTLYDRG
  soluble fraction (log2): -4.48

## HMPREQQENVYLLEKAKRLYEEYLGDQRQTIGHALAQFERVLESQDPAAIRRAQKEFGEFLERYDG
  soluble fraction (log2): 0.102

## HMPREVKLPPDLLDALEASPEAKAFFLQLSYTHQKEYAQWIEEAKQEATRQRRLEKTVQMLLEGRRT
  soluble fraction (log2): -0.0798

## HMPRFDINFKVGEVVTIKGGSFDGQQGEISEIDHEHGKIKVMLEVLGRLTPVEVEHTEIEKI
  soluble fraction (log2): 0.176

## HMPRKLDDQLQEQIRYLKSNYPRMSAAGIFRQLQDNGSIKHGDVSESTINRYVNLLSIEMKTTT
  soluble fraction (log2): -0.223

## HMPRNMTFAIRGEYITLDALLKAVGAADSGAQAKHRIAEGEVTVDGVVETRKTRKLRGGETVVVDDLAVVL
  soluble fraction (log2): -0.272

## HMPRQREVPDVSGWTEQHAKVYLEALGYRVKVIYLEVSSFDKGLVQETSPAKGSKVEEGDTIDLRVSNQE
  soluble fraction (log2): -0.367

## HMPRSLGADLRAIRKGRRLTLTDMAEALDRSVGWVSQVERDISTPSISDLRRMAEILDVPVSLLFG
  soluble fraction (log2): -2.87

## HMPSARELLATNIVRLRKEKGWSQEDLALEAGLHRTFVAHVERHARNISLDNIERLANALQVNVHILLL
  soluble fraction (log2): -3.79

## HMPSEDELAERLRGAIRQGDILNEGRMPPERALAEHFGVSRARLRLALGLLQEDGTIYRRHGQGTFAT
  soluble fraction (log2): -0.132

## HMPSIGKNILYYRKKRNMTIDELSKKSGVSKSMLSQVEQEKTNPTVVTVWKIARSLDVSINQLLQT
  soluble fraction (log2): -0.489

## HMPSKKHARWIELEARKFMADNEDAVSDLHELRTRAANFAALKTSTLPVDQHRAIVAGFVARVNELGRRI
  soluble fraction (log2): -0.631

## HMPSLSPDETVVVDALRQQNDMQINMISVKTNLPIARLSAILFEMELKGVLKPLAGGVYHLL
  soluble fraction (log2): -0.316
